Source: paper PMC11620640 (2024)
Like-named read-outs stand apart in the source and are kept apart here.

Assays:
[1] = target: T1, SARS-CoV-2 prototype (PT) spike receptor binding domain (RBD) (SARS-CoV-2, UniProt P0DTC2 319-541); experiment: SPR
[2] = target: T1, SARS-CoV-2 prototype (PT) spike …; experiment: SPR; remark: listed apart in the source

B1: raccoon dog ACE2 (rdACE2), peptidase domain (PD), wild type (receptor)
chain: QSTEDLVNTFLEKFNYEAEELSYQSSLASWNYNTNITDENLQKMNNAGAKWSAFYEEQSKLAKTYPLEEIQDSTVKRQLRALQHSGSSVLSADKNQRLNTILNSMSTIYSTGKACNPSNPQECLLLEPGLDDIMENSKDYNERLWAWEGWRSEVGKQLRPLYEEYVALKNEMARANNYEDYGDYWRGDYEEEWENGYNYSRNQLIDDVEHTFTQIMPLYQHLHAYVRTKLMDTYPSYISPTGCLPAHLLGDMWGRFWTNLYPLTVPFGQKPNIDVTNAMVNQSWDARKIFKEAEKFFVSVGLPNMTQGFWENSMLTEPSDSWKVVCHPTAWDLGRGDFRIKMCTKVTMDDFLTAHHEMGHIQYDMAYAAQPFLLRNGANEGFHEAVGEIMSLSAATPNHLKNIGLLPPSFFEDSETEINFLLKQALTIVGTLPFTYMLEKWRWMVFKGEIPKDQWMKTWWEMKRNIVGVVEPVPHDETYCDPASLFHVANDYSFIRYYTRTIYQFQFQEALCQIAKHEGPLHKCDISNSSEAGQKLLEMLKLGKSKPWTYALEIVVGAKNMDVRPLLNYFEPLFTWLKEQNRNSFVGWNTDWSPYADQS
Kd [1]: 0.0874 µM
Kd [2]: 0.0707 µM
